Experimental data published in PMC10863849, “A kinesin-13 family kinesin in Trypanosoma brucei regulates cytokinesis and cytoskeleton morphogenesis by promoting microtubule bundling” (PLOS Pathogens, 2024).

What was measured:
Assay in all cases: native gel or EMSA; blue native gel electrophoresis (NativePAGE Novex 3-12% Bis-Tris), 225 ng purified recombinant protein in BRB80-DTT buffer plus 5% glycerol, silver-stained; oligomer size read from band mobility
[1] = target: KIN13-5 SAM domain-deletion mutant (a.a. 71-719), hexahistidine-tagged (T. brucei)
[2] = target: GST-fused TbSpef1 (full-length TbSpef1 with N-terminal GST) (T. brucei)
[3] = target: recombinant hexahistidine-tagged KIN13-1 (T. brucei)
[4] = target: KIN13-5 CC-deletion mutant (a.a. 1-642), hexahistidine-tagged (T. brucei)
[5] = target: GST
[6] = target: recombinant hexahistidine-tagged full-length KIN13-5 (a.a. 1-719) (T. brucei)
[7] = target: motor domain of KIN13-5 (a.a. 170-536), hexahistidine-tagged (T. brucei)
[8] = target: the molecule itself

KIN13-5 SAM domain-deletion mutant (a.a. 71-719), hexahistidine-tagged (domain or fragment)
stoichiometry N [1]: 4

GST-fused TbSpef1 (full-length TbSpef1 with N-terminal GST) (natural protein)
stoichiometry N [2]: 4

recombinant hexahistidine-tagged KIN13-1 (natural protein)
stoichiometry N [3]: 2

KIN13-5 CC-deletion mutant (a.a. 1-642), hexahistidine-tagged (domain or fragment)
stoichiometry N [4]: 2

GST (natural protein)
stoichiometry N [5]: 2

recombinant hexahistidine-tagged full-length KIN13-5 (a.a. 1-719) (natural protein)
stoichiometry N [6]: 8

motor domain of KIN13-5 (a.a. 170-536), hexahistidine-tagged (domain or fragment)
stoichiometry N [7]: 4

B1: recombinant hexahistidine-tagged KIN-G (natural protein)
chain: MAKPLSGKAAPKNISVFLRVRPPVPRELKGGTFNNLVCDPSDPQRVTITRGGSARKGTKSFLFNRVFDPECTQQTIYNEVARGAVDAAFDGQHGVLFVYGQTGSGKTFTISNNDPEKPGVLQQSLRDIWDRFQADTEYDYSCTVSYVQLYNEMLTDLLDPQGGRVRIQLGPEGRGDVVLVTEASGASIERKVESYEDCLKYFYEGMDRKEMTSTKMNNTSSRSHTVFNFNLTRSAKVKTVDLSSAKANNEPVIALQGRLVVCDLAGSERASRTNAEGKTLDEATHINGSLLVLGKVVAALTESGSQHAPFRESKLTRILQYSLLGNGNTSIVVNCSPCDDSTEETLGAIMFGQRAIQIKQDAKRHEILDYKALYYQLLADLDSKNDRTLETALSEERTAYEDRIRVLEERIKILTSENDMLRRESSQLGGTGPVSGTSTASGAAAAAVAMGGDDANDWRSLTMKMRRAIEKLDADLKRTDKERVELAQFLALEKNKVNVLAQKLRAESLKHIMENKELTQRVTELSIDNAKLKGTDYISFQPSAACEDALPLSLDSPRRGTPSSGLSQSINVGDAYLQEQLDKANRQLRVLNEERVELIVYQMMASKAIRLLHAEKTSLANHLEKLKA
stoichiometry N [8]: ~4
